The values that follow come from US20060246084A1.

This assay concerns the target synthetic fragment of the mouse TLR-2 extracellular domain (mouse).

B1: LcrV193-210 synthetic peptide (peptide)
peptide: LMDKNLYGYTDEEIFKAS
modifications: not checked
As a reminder, the Kd is the equilibrium constant for the complex coming apart. Low readings indicate a tighter complex, high ones a looser complex. In turn, B1 returned a Kd of 0.35 nM.
